The source of these data is a protein production outcome set (Wang et al. 2014).

A short description of the series: label from the status in PepcDB records.

For “MLSLKKSLNPPSSFGWSDPDPCKWTHIVCTGTKRVTRIQIGHSGLQGTLSPDLRNLSELERLELQWNNISGPVPSLSGLASLQVLMLSNNNFDSIPSDVFQGLTSLQSVEIDNNPFKSWEIPESLRNASALQNFSANSANVSGSLPGFLGPDEFPGLSILHLAFNNLEGELPMSLAGSQVQSLWLNGQKLTGDITVLQNMTGLKEVWLHSNKFSGPLPDFSGLKELESLSLRDNSFTGPVPASLLSLESLKVVNLTNNHLQGPVPVFKSSVSVDLDKDSNSFCLSSPGECDPRVKSLLLIASSFDYPPRLAESWKGNDPCTNWIGIACSNGNITVISLEKMELTGTISPEFGAIKSLQRIILGINNLTGMIPQELTTLPNLKTLDVSSNKLFGKVPGFRSNVVVNTNGNPDIGKDKSSLSSPGSSSPSGGSGSGINGDKDRRGMKSSTFIGIIVGSVLGGLLSIFLIGLLVFCWYKKRQKRFSGSESSNAVVVHPRHSGSDNESVKITVAGSSVSVGGISDTYTLPGTSEVGDNIQMVEAGNMLISIQVLRSVTNNFSSDNILGSGGFGVVYKGELHDGTKIAVKRMENGVIAGKGFAEFKSEIAVLTKVRHRHLVTLLGYCLDGNEKLLVYEYMPQGTLSRHLFEWSEEGLKPLLWKQRLTLALDVARGVEYLHGLAHQSFIHRDLKPSNILLGDDMRAKVADFGLVRLAPEGKGSIETRIAGTFGYLAPEYAVTGRVTTKVDVYSFGVILMELITGRKSLDESQPEESIHLVSWFKRMYINKEASFKKAIDTTIDLDEETLASVHTVAELAGHCCAREPYQRPDMGHAVNILSSLVELWKPSDQNPEDIYGIDLDMSLPQALKKWQAYEGRSDLESSTSSLLPSLDNTQMSIPTRPYGFAESFTSVDGR”, the protein production result was “not failed”.
Under “MLSLLISVKKLFSSFLGILKKEDTRALFFLLATTLLSGTIFYSTVEKLSPLDSLYLSFMTLTTIGYGDVHPVTDLGKIFTMIYATVGLGIMAMFISVVAKSYLYSKQSHHHHHHKNKEHSAEKSSEK” stands “failed”; under “MLSLLLILPVIGALIIGFFPGNIPAKQLRQITEVFAVLTLVWSLLVLFKFDVTDPQFQFQEYLPWIPQLGLNYSLAIDGLSLPLVILNNLLTGVAIYSIGPNVNRSRLYYGLILLINAGISGALLAQNLLLFIVFYELELIPFYLMIAIWGGEKRGYASMKFLLYTAFSGLLVLAAFLGMSLLSGSHSFDYNPEITQTFTESAQTILLILILLGFGIKIPLVPLHTWLPDAYTEASPATAILLGGILAKLGTYGIIRFGLQLFPQTWAQFAPVLAIIGTVTVLYGALSAIAQKDIKRMVAYSSIGHMGYILVAAAAGTELSVLGAVAQMVSHGLILALLFHLVGIVERKAGTRDLDVLNGLMNPIRGLPLTSALLITGGMASAGIPGLVGFAAEFIVFQGSFPTFPIPTLLCILASGLTAVYFVILLNRTCFGKLDNQRAYYPKVLASEMIPALVLTAIIFFLGVQPNYLVHWTQTTTNEMIAQLPHETSAIEQLAQGVTLP”, “failed”.
On to “MLSRLDQRSGGRSPIRAVRTRNSAMRTSRRAIVAFVLGVSALAVPALAFEGAPVNQKDATIPVVTTLPGAAGAVRSKVSPATQETSLSALQYAAEGGHPIAQWKLGRMYANGDGVAQDDVRAFEYFSRIANAHAEDSPSAPQAQIVANAFVALGRYYLSGIPNSKIKPDQDRAREMFSYAASYFGNADAQYDLARLYLKTPDASREDFRYGARWLGLAAQKGQHEAQALLGQMLFNGDRLPRQAARGLMWLTLARDSAGSEETWIKESYNRAFAKASDDDRAMCLQMLEQWVQGRRE”, for which the protein production entry is given as “failed”.
Under “MLSRLRHRLLAVAAAAGLTGALLSFGAAPPADAAVPATIPLKITNNSARGDAVHIYNLGTSLTTGQQGWADENGTFHAWPAGGNPPTPAPDASIPGPAAGQTKTIRIPKLSGRIYFSYGQKLDFRLTTGGLVQPAVQNPSDPNRNILFNWSEYTLNDGGLWLNSTQVDMFSAPYTVGVQRADGGVTSAGQLKAGGYRGVFDALRAQPGWGGLIQTRPDGTVLRALAPLYGVETGALPASVMDDYINRVWQKYTTTTLTVTPFGDRPDTKYFGRVSGNVMNFTNTSGAVVTSFQKPDASSVFGCHRLLDAPNDQVRGPISRTLCAGFNRSTLLSNPNQPDPSAANFYRDPVTNHYARIIHERMADGKAYAFAFDDVGNHESLVHDGNPAEARLTLAPLDLEHHHHHH” stands “not failed”.
Consider “MLSTMQPTLATNYTTIPCYQLCYQHYATNLAPIIRSTGSMILNYAIIRLSLQQNLCYRKTCVRDTAQYDPPCNKIYTTGLCCSRTYKTLQAFFLDMSETPQKLREEAVKYFNETLDLMQKGENAEALESLRKAESSAQKAEDGPILFHILKVRGQLLQSLDMLEEALETYAFSLIMSEKLLSEDPENKLYTDTLHLNLNNLGNLGNAFQRMGNFPSSKQAYEIGIEICQNLLNSYPENEFYRMYAGNTLNNLGELLFTMGEPEEAKEKYEEALKTYSLLLKNSPEKPEYLSDTAMTLNNLGNLYSEKGQEAEAKENFEKALEILKKRSEKEPGNEKLREEIRITQEKLEAI”, for which the protein production result is given as “failed”.
As for “MLSVSWEYNFSFKKLNVPSFSVCRMLCGKLQNPLDHKKDEASHVKHASQGDVPFSGPLQVSKSNSFAWAKREKDDVCVRVHNRSLSRGYIPSLSGHSPAFNGKSDVESKINKDEKEDKTDSRGEESYEMVKRSMLKQWRQLERPDSFGASDEYHSQELSLGLYQRDEMAKKMGNNLVRP”, the protein production entry is “failed”.
For “MLSVVSPNRSTARAARTPFWRRAAVGLCLLGVAMSGPLAAQDPAQVNTFIGSKDDGNTYPGASAPFGLIQVSPIGAHYAGWRYDDPSIRGFGHSFLSGAGCWEQGGQVSVLPVTGRIGPGGDFDTNDAKAFDQKRYAARYTHDGEVGQAGYYKVRLTDYGGIDAEASALTRAATERYTFAPGADTGHVLVNVAQANDRHVVIGSQLQIVGDRVVEGKLTTQSFCGGHEYTTWFRLEFDRPFTAHGVWGEEGGVPGARHGMGGELKPNGAWLSFPLGKDKNARAVTVVSAISHVDAQGARSNLRADGMQGGKLLSLEQMRQRAQNGWRNALASMQVEGASNDDRSVAYTALYHALLQPLTGSDADGRYRGYDDAIHRADGWTYYEYFSLWDTYRSQNQLLALLQPTRARDIGRSLLAIQQQGGWLPRWGYANFDTNIMTGDPVTPFLVDLWRFGALQGNEAEAYAALRQNAFGQPPINSRHAGRSGNANYLANGFVQYDRAFPSKGMDVDPHHGGSATLEYALADCALAQMAQALGHGEDAAQLRKRGGNWHRVWDADVRDAETGFAGFPRPRLEDGSWYAPSDDHYSPRSEHGFHEGTAWQYQWLVQQDIPGMLQAMHGSQQAGKRLDAFFAYDDLLKDPLTAARTHWVVGPYSYYNQYRYNPNNEPDLHAPWMYTLIGQPWKTATVVRAAQQLFTNAPNGVTGNDDLGTMSAWYLFSALGLYPAVPGSGQFLLHAPRFKRVTLNLGNGKRLRIDAPGADGRALQYVDNVRWNGKAQPQVFLDWAQLQQGGTLAFALTKQAPTQGWGTQADALPASFCATPQAQ”, the protein production result is on record as “failed”.
Under “MLTHHKNKLKTIEWTSYVWLAYLPYTIAAYIPVKSWHDWLWLLLVGGFLVLYILVVEKPHWRAVTMPAELVVTGLFAVFAANNFMIIFPGWQVSFLLGRRPKREFYGFALGYYAFLIGGCIRDYLQYPGVFGWHNGDVMGLVFPLLSPILAYTFSWSVERQRQLNQTNRRLKTIVERNERERIARDLHDTLGQSFSMITLKTELAKKLLVKAPEKVAPELDEIEQTSRQNLQLVREIVNNLHEQSLTEVLLAQTRNLAAVGVWTTTTGETQATKWPTTVQSCFAAVLVEAMTNVMRHAHAHEVRIDFVETAKIYQIKLKDDGKGGTLIRQGANGIAGMRTRLQAKQGTFAITSSRRGTQLILTLPKE” stands “failed”; under “MLTHKTCQARKKMQVSFVIRDAEEKQHRNGVNALQLDANNGKLYSAGRDAIIRVWNTRTDSSEKYIQSMEHHNDWVNDIVLCCNGRNLISASCDTTVKVWNAQKGFCMSTLRTHRDYVQALAYAKDREQVASAGLDKAIFLWDVNTLTALTASNNTVTTSSLTGSKDSIYSLAMNPSGTVIVSGSTENILRIWDPRTCMRRMKLRGHTENVRCLVVSPDGNQVVSGSSDGTIKVWNLGQQRCVQTIHVHKEGVWSLLMSENFQYIISGSRDRNIIVTEMRNPSNKTLVCEEQAPVLSLGYNIDKTGVWATTWNSDIRCWKLPMYDRCTLNSSGGMDAQWTQGGTEVACIKGGAAIKECAVLNDKRYIITKDSQDQVVVYDVLRVVKKEQLGAVDFEAEVKKRNKQVYIPNWFTVDLKTGMPTIVLGQEEVDCFSAWVSIEAGLPECVDPTTEIKINYGKLLLEALLEYWTPPHSIPPNEMEPDMHGNGYFQVPKHTPVIFSEVGGRTVCRLLVRDAAGDSESTLLHETAPQWVTDVVIEKNIPKFLKIPFFLQPHPQMTKPERTKKDRLVANEFIQCRKVCEHVLEKVLNAETTPSGGNANNSLQNSQSDANSEGSQLPAEERIELWCNDVVVDPNMDLRTVRHFIWKQSTDLTFQYKTKQNFNYDGK”, “failed”.
For the sequence “MLTLHIGGIGIGEPLWFICNILVSFIFSYKLFNSILHNNNISYIFALIYTFSPAMAVLTYSTSWETVLSYAFSPLILYLLYLTFNNLELKGLSFDLILISIFMYVYYFDTDVIMWEGILVVSMLIYLTISHTNRKNCS”, the protein production entry is “failed”.
The same measure for “MLTLPAPEPIAHMEVTSYRAGVQGGSGLWRGQAVYVKTLVSDDPDRVAMFHHEGAVAARLSHPLVTPLLAHTPNQLIFPLLRGGTLRDLVRCGPLDADAATQVTWGVLQAVSHLHGRGVTHHDLKPENVLLIGGQSQVEAVRLIDFGMSHAAGLPLDIHSGTRMGTPQFMAPEQFQGVRGDPRSDLYSVGVLLFDCLAGHPPYADALGWLVGISEERAAAPGPSALHPLMLRAIQRDRDSRPQSAAEMLAALADARQQLGLPELEHIAPEGQTAGENA”: “failed”; for “MLTRPMGEGYIQYLRLSKETTQPADSKIPGLWSSSVRPEFCCIYRVPDRLRKVNPEAYTPQMLLIGPLHHSKKAEALKRYKTDLRYLNYLNMELHKKKCLDSIADIYGDQPVKEFRRIIEINEKFIRDSYAESTIWINTKDFVEMILHDSVFILLFFIQTGSTLNFNKKEDILFNQSRLINATAILEDLILLENQLPYALLEKLFEPFSSNVNTKETFRDITLRAFRFEGKIKEEVRFQHFTDLFRCVRVSTLSLTEEQINIAKNEPPKSRKIMYNADKLDSAGVNFVNVDEENDLSLVITFKDGILKMPCFTVEDNTERVVRNLMALEQCHYPRTTFVCDYISFLDFLINTDQDVDLLAKKGIVKNWLGHQGSVTEMVNKLCLGLVDFGSHYSDIVENLNKHYDNRLNRSVGTLRRVYFKDLWTGTATIAAVVLLVLTLIQTVASILQVMMQNDNKSPPPPAPSRGL”: “failed”.
Consider “MLTVIAEIRTRPGQHHRQAVLDQFAKIVPTVLKEEGCHGYAPMVDCAAGVSFQSMAPDSIVMIEQWESIAHLEAHLQTPHMKAYSEAVKGDVLEMNIRILQPGI”, for which the protein production result is “not failed”.
Under “MLVALITLAFIHFCALITPGPDFFLVSQTAVSRSRKEAMLVVAGITAGVMFWASLALMGLNIIFEKMAWLKQGLLIAGGLYLCWLGYQMLRSAFSKNQQEEVTTVELPKAPYLFFMKGLLTNLSNPKAVIYFGSVFSLFLANPQLDQVHWLLFIIVSVETILWFCFVTFIFSLPSFRAAYRNFSKWIDGISGGIFTVFGIFLIGNR” stands “failed”.
Turning to “MLVKININGKKKSVDIEPEEYLVDTLRKVGNLSVKRGCDTGCCGLCTVLIDKKPTLSCATLTLRALDKEITTIEGLENEVKEFSEVLVKEGAEQCGFCSPGFILTVLAMKDELENPTDDEIKHYLTGNLCRCTGYMGQLRAIKTYLEVK”, the protein production result is on record as “failed”.
The same measure for “MLVMIDTKRPPVYIDSQVGLNTFFLIRGRYPSLNLFVSFITTVKTLGNNVSRTHGDDAESDRVSNVDENNEAVDEQDNIEDDKTDEDEKEGDNEDGDGYDDYQGDDESMGGSTLDPTIDGSESSDEDCDYNKWNDVIVEEYGMLRRTSFSHQGNSVVCWQSVRTQVSVYLTEITFLTRVTVHQL”: “failed”.
